Results: patent publication CN115181181A (NANJING RONGJIEKANG BIOTECHNOLOGY CO LTD, dated 2022)

T1: 人源重组CD25蛋白 (human IL-2RA) (human, UniProt P01589 22-240)
T1 construct: extracellular domain; also called CD25重组蛋白; 人源重组胞外结构域蛋白
T1 sequence (looked up): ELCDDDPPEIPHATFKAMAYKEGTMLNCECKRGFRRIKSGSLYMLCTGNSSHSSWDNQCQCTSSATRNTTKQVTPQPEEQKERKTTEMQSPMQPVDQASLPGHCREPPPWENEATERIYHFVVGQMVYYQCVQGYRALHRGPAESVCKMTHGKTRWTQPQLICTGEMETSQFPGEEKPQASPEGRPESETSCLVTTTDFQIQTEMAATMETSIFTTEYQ


Biological target: T1, 人源重组CD25蛋白 (human IL-2RA)
Assay: screening ELISA: crude VHH extract on coated CD25, anti-HA-HRP detection; positive if OD450 is over 5 times the control

Binder	binding result
单域抗体3F5 (原核粗提VHH) (VHH, also called VHH7; not shown: tags from the pMECS vector (detected with anti-HA antibody)) VHH: ESGGGSVQAGGSLRLSCAASGYTYSRNCVGWFRQAPGKEREGVAAIDSGGGYSYYADSVKGRFTISQDNAKNTVFLQMNSLKPEDTAVYYCAAEPASCFPHVPTEVDFGYWGRGTQVTVSS	binds
单域抗体1E1 (原核粗提VHH) (VHH, also called VHH3; not shown: tags from the pMECS vector (detected with anti-HA antibody)) VHH: ESGGGSVEAGGSLRLSCARPGYDYDTDYMGWFRQAPGKEREGVATIYTQKGFTWYADSVKGRFTISQDNAKNTVYLQMNSLKPEDTAMYYCAAADYGAATSKLNPSKYNAWGQGTQVTVSS	binds
单域抗体1A5 (原核粗提VHH) (VHH, also called VHH1; not shown: tags from the pMECS vector (detected with anti-HA antibody)) VHH: ESGGGSVQAGGSLRLSCAASGYTYSSNCMGWFRQAPGKEREGVAAIDTGGGHTYYADSVVKGRFTISQDNAKNTVYLQMNSLKPEDTAMYYCAADSGYCYAEEPAPDRFGYWGQGTQVTVSS	binds
单域抗体3E11 (原核粗提VHH) (VHH, also called VHH6; not shown: tags from the pMECS vector (detected with anti-HA antibody)) VHH: ESGGGSVQAGGSLRLSCVASGYTYSRRCMGWFRQAPGKEREGVAAIYSGNGVTYYPDSVKGRFTISQDNAKNTVYLQMNSLKPEDTAMYYCAAQGDYCYAHAPEPADFGYWGQGTQVTVSS	binds
单域抗体2H3 (原核粗提VHH) (VHH, also called VHH5; not shown: tags from the pMECS vector (detected with anti-HA antibody)) VHH: ESGGGSVQAGGSLRLSCAASGHTSSSNRMGWFRQAPGKEPEGVAVISTGGGRTLYADSVKGRFTISQDNAKNTLGLQMNSLKPEDTAMYYCAAAASSIAISRFWTWPPKEFFDYWGQGTQVTVSS	binds
单域抗体1H1 (原核粗提VHH) (VHH, also called VHH4; not shown: tags from the pMECS vector (detected with anti-HA antibody)) VHH: ESGGGSVQAGGSLRLSCAASGYTSRRNCMGWFRQAPGKEREGVAAINTAGGHTYYADSVEGRFTISQDNARNTVYLQMNSLKPEDTGMYYCAAETGSYCYAHVPESADFGYWGQGTQVTVSS	binds
单域抗体4H7 (原核粗提VHH) (VHH, also called VHH11; not shown: tags from the pMECS vector (detected with anti-HA antibody)) VHH: ESGGGSVQAGGSLRLSCAASESTYRRTYMAWFRQAPGKERDGVAVIYTGNGVTWYADSVEGRFTISQDNAKNTVYLQMNSLKPEDTAMYYCAADSMRGRNVLHSGFYHYWGQGTQVTVSS	binds
单域抗体3G3 (原核粗提VHH) (VHH, also called VHH8; not shown: tags from the pMECS vector (detected with anti-HA antibody)) VHH: ESGGGSVQAGGSLRLSCVGSRYTSITGCMGWFRQAPGKEREGVAAIDTGGGHTYYADSVKGRFTIAQDNAKNTVYLQVNSLKPEDTGMYYCAAEASPCFPHNPQVADFGYWGQGTQVTVSS	binds

Continued, values first:

binding result	Binder
binds	单域抗体4D9 (原核粗提VHH) (VHH, also called VHH10; not shown: tags from the pMECS vector (detected with anti-HA antibody)) VHH: ESGGGSVQAGGSLRLSCAASGYPYRRNCMGWFRQAPGKEREGVAAIDSAGTTTYADSVKGRFTISKDDAKNTLYLQMNSLKPEDTAMYYCALNAPTWECRAGGAPAFAYSGQGTQVTVSS
binds	单域抗体1B5 (原核粗提VHH) (VHH, also called VHH2; not shown: tags from the pMECS vector (detected with anti-HA antibody)) VHH: ESGGGSVQAGGSLRLSCAASGYTYSSNCMGWFRQAPGKEREGVAAIDTGGGYTYYADSVEGRFTISQDKAKNTVYLQMNSLKPEDTAMYYCAADTGRCFPHVPYEVDFGYWGQGTQVTVSS
binds	单域抗体4A4 (原核粗提VHH) (VHH, also called VHH9; not shown: tags from the pMECS vector (detected with anti-HA antibody)) VHH: ESGGGSVQAGETLRLSCTASGFTFDDSDMGWYRQAPGNECELVSIMRSDRSTYYAASVKGRFTISQDNAKNTVYLQMNSLKPEDTAVYHCAAAGAISIAAACPTHWWGQGTQVTVSS
